Molecular target: HA-Ubiquitin-Vinyl Sulfone (UniProt P0CG48 1-76, vinyl sulfone (active site probe of cysteine DUBs))
Experiment: active-site-directed labelling with HA-UbVS

binding result: binds
B1: UCHL5 (enzyme)
chain: MTGNAGEWCLMESDPGVFTELIKGFGCRGAQVEEIWSLEPENFEKLKPVHGLIFLFKWQPGEEPAGSVVQDSRLDTIFFAKQVINNACATQAIVSVLLNCTHQDVHLGETLSEFKEFSQSFDAAMKGLALSNSDVIRQVHNSFARQQMFEFDTKTSAKEEDAFHFVSYVPVNGRLYELDGLREGPIDLGACNQDDWISAVRPVIEKRIQKYSEGEIRFNLMAIVSDRKMIYEQKIAELQRQLAEEEPMDTDQGNSMLSAIQSEVAKNQMLIEEEVQKLKRYKIENIRRKHNYLPFIMELLKTLAEHQQLIPLVEKAKEKQNAKKAQETK
